Laboratory results: patent US6034212

Columns and labels:
[1] = biological target: GST-…; test: blot of mutant ligand proteins probed with 32P-labelled GST-WW-YAP
[2] = biological target: GST-… fusion protein (mouse); test: Western ligand blot, reference GST-WBP-1 (1-74)

fold reduction of binding against wild-type PY [1]: 2 fold | signal relative to the N-terminal construct [2]: 80%
Substance: GST-WW-YAP fusion protein (WW domain of human YAP in pGEX-2TK)
